Results: patent US20240270861A1 (DRAGONFLY THERAPEUTICS, published 2024)

Experiments:
[1] = target: T1, hBAFF-R-hFc-His fusion protein (human, UniProt Q96RJ3 1-78, biotinylated where used as yeast display probe); experiment: yeast display flow cytometry after challenge: 100 pM hBAFFR-Fc biotin for 1hr at RT, then 1 mM nonbiotinylated hBAFFR-Fc (as printed on the sheet)
T1 construct: also called hBAFFR-Fc; biotinylated hBAFF-R-hFc-His

cynomolgus CD16 = target: T2, cynomolgus CD16 (cynomolgus monkey, UniProt Q8SPW2 17-208); experiment: SPR, kinetics fit
T2 construct: also called cyno CD16; FcγRIII (cynomolgus)
T2 sequence (Q8SPW2 17-208 limits assumed): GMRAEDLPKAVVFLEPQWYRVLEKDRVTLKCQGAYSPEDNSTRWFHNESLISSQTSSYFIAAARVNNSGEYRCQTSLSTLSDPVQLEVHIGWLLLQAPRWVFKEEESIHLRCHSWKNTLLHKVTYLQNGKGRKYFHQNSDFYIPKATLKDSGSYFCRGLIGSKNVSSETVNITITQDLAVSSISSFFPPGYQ

human CD16a V158 = target: T3, human CD16a V158 (human, UniProt P08637 17-208); experiment: SPR, qualitative (Table 40 not given)
T3 construct: Recombinant receptor in SPR; in the cytotoxicity assays expressed on KHYG-1-CD16aV cells; also called hCD16aV; hCD16a V158
T3 sequence (P08637 17-208 F176V limits assumed): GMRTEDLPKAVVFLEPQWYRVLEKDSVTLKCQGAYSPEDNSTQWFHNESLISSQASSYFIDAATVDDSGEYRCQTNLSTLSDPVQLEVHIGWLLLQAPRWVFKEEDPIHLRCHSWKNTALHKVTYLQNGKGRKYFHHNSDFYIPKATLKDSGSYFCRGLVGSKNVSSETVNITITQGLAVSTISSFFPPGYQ

Binder | Iana (drawn gate) [1] | other results
AB1080scFv displayed on yeast (scFv, V domains shown, scFv on yeast) VH: EVQLVQSGGGVVQPGRSLRLSCAASGFTFSSYGMHWVRQAPGKCLEWVAVIWYDASNKYYGDSVKGRFTISRDNSKNTLYLQMNSLRDEDTAVYYCARRFTHLRGWYIEDYGLDVWGQGTTVTVSS VL: not shown | 23.4 % (unit not printed) | 
AB1081scFv displayed on yeast (scFv, V domains shown, scFv on yeast) VH: EVQLVQSGGGVVQPGRSLRLSCAASGFAFSSYGMHWVRQAPGKCLEWVAVIWYDESNKYYGDSVKGRFTISRDNSRNTLYLQMNSLRDEDTAVYYCARRFTNLRGWIIEDYGLDVWGQGTTVTVSS VL: not shown | 27.2 % (unit not printed) | 
AB1084scFv displayed on yeast (scFv, V domains shown, scFv on yeast) VH: EVQLVQSGGGVVQPGRSLRLSCAASGFTFSMYGMHWVRQAPGKCLEWVAVIWYDASNKYYGDSVKGRFTISRDNSKNTLYLQMNSLRDEDTAVYYCARRFTRLRGWYIEDYGLDVWGQGTTVTVSS VL: not shown | 7.4 % (unit not printed) | 
AB1424/AB1612 F3′ TriNKET (bispecific antibody, human IgG1, kappa, Chain S anti-BAFF-R scFv-CH2-CH3, Chain H and Chain L anti-NKG2D A49MI Fab; also called AB1612-002) not shown heavy: EVQLVESGGGLVKPGGSLRLSCAASGFTFSSYSMNWVRQAPGKGLEWVSSISSSSSYIYYADSVKGRFTISRDNAKNSLYLQMNSLRAEDTAVYYCARGAPIGAAAGWFDPWGQGTLVTVSSASTKGPSVFPLAPSSKSTSGGTAALGCLVKDYFPEPVTVSWNSGALTSGVHTFPAVLQSSGLYSLSSVVTVPSSSLGTQTYICNVNHKPSNTKVDKKVEPKSCDKTHTCPPCPAPELLGGPSVFLFPPKPKDTLMISRTPEVTCVVVDVSHEDPEVKFNWYVDGVEVHNAKTKPREEQYNSTYRVVSVLTVLHQDWLNGKEYKCKVSNKALPAPIEKTISKAKGQPREPQVCTLPPSRDELTENQVSLTCLVKGFYPSDIAVEWESNGQPENNYKTTPPVLDSDGSFFLYSWLTVDKSRWQQGNVFSCSVMHEALHNHYTQKSLSLSPG light: DIQMTQSPSSVSASVGDRVTITCRASQGISSWLAWYQQKPGKAPKLLIYAASSLQSGVPSRFSGSGSGTDFTLTISSLQPEDFATYYCQQGVSFPRTFGGGTKVEIKRTVAAPSVFIFPPSDEQLKSGTASVVCLLNNFYPREAKVQWKVDNALQSGNSQESVTEQDSKDSTYSLSSTLTLSKADYEKHKVYACEVTHQGLSSPVTKSFNRGEC |  | Kd (cynomolgus CD16): 232 nM
AB1424/AB1612 F3′ TriNKET FcγRsi (bispecific antibody, Positions are EU numbers, not positions on the entries; also called AB1424/AB1612 F3′ TriNKET-Fc-si; AB1424/AB1612 F3′ TriNKET-Fc silenced) not shown heavy: EVQLVESGGGLVKPGGSLRLSCAASGFTFSSYSMNWVRQAPGKGLEWVSSISSSSSYIYYADSVKGRFTISRDNAKNSLYLQMNSLRAEDTAVYYCARGAPIGAAAGWFDPWGQGTLVTVSSASTKGPSVFPLAPSSKSTSGGTAALGCLVKDYFPEPVTVSWNSGALTSGVHTFPAVLQSSGLYSLSSVVTVPSSSLGTQTYICNVNHKPSNTKVDKKVEPKSCDKTHTCPPCPAPEAAGGPSVFLFPPKPKDTLMISRTPEVTCVVVDVSHEDPEVKFNWYVDGVEVHNAKTKPREEQYNSTYRVVSVLTVLHQDWLNGKEYKCKVSNKALGAPIEKTISKAKGQPREPQVCTLPPSRDELTENQVSLTCLVKGFYPSDIAVEWESNGQPENNYKTTPPVLDSDGSFFLYSWLTVDKSRWQQGNVFSCSVMHEALHNHYTQKSLSLSPG light: DIQMTQSPSSVSASVGDRVTITCRASQGISSWLAWYQQKPGKAPKLLIYAASSLQSGVPSRFSGSGSGTDFTLTISSLQPEDFATYYCQQGVSFPRTFGGGTKVEIKRTVAAPSVFIFPPSDEQLKSGTASVVCLLNNFYPREAKVQWKVDNALQSGNSQESVTEQDSKDSTYSLSSTLTLSKADYEKHKVYACEVTHQGLSSPVTKSFNRGEC |  | binding result (human CD16a V158): no binding
